# According to patent publication US20210079109A1 (Regeneron, published 2021):
# Where a chain is given by its changes, count along the chain named.
# B1: H2M12450N (antibody, V domains shown)
# VH: QVQLQESGPKVVKPSETLSLTCTVSGGSISSYYWNWIRQSPGKGLEWIGYTKRGYTDYNPSLRSRVTISEDTSKNQFSLRISSVTAADTAVYYCAQMGWGSHAFDMWGQGTMVAVSS
# VL: EIVLTQSPGTLSLSPGERATLSCRASQSVNSRYLAWYQQKPGQAPRLLIYGASSRATGIPDRCSGSGSGTDFTLTISRLEPEDFAVYYCQQYGSSPWTFGQGTKVEIK
# notes: also called H2aM12450N; mAb12450
# B2: H2M12395N (antibody, V domains shown)
# VH: QVQLQESGPRLVKPSETLSLTCIVSGGSISNFYWNWIRQSPGKGLEWIGYFFYTGTIDYNPSLKSRVTISLDTSKNQFSLNLRLLTAADAAVYYCARMGLGANAFDIWGHGTMVTVSS
# VL: B1 VL with S28H, N30S, R32N, A52G, C63F, E82A, Y87F, S94N, I107M
# notes: also called H2aM12395N
# B3: H1M12451N (antibody, V domains shown)
# VH: QVQLQESGPGLMKPSETLSLTCTVSGGSFSSYYWNWIRQSPGKGLEWIGYIRYSGDTNYKPSLKSRFTISIDTSKNLFSLRLKSVTAADTAVYYCARMGLGSDAFDIWGQGTMVTVSS
# VL: B1 VL with S31N, R32N, A52V, S53F, S54N, G58N, C63F
# Columns and labels:
# [1] = biological target: T1, human CD63 (human, UniProt P08962 2-238); test: ECL, U87MG cells
# T1 construct: stably transfected in NIH3T3/hCD63; The cell line is named under assay; also called hCD63
# T1 sequence: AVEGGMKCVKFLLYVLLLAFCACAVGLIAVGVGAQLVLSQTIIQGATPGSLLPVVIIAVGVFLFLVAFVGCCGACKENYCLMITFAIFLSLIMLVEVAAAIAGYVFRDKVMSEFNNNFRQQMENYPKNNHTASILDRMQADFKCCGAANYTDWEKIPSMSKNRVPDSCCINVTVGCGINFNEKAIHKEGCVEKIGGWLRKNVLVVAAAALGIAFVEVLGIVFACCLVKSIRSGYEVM
# Method in brief: (§1)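 Detached cells (~2.0×10⁴/well: NIH3T3/hCD63, LNCAP, U87MG, or parental NIH3T3 as negative control) were plated on carbon-electrode plates and blocked with 2% BSA. Anti-CD63 or isotype antibodies (1.7 pM–100 nM, in duplicate) were bound 1 h at RT, then washed. Signal read as electrochemiluminescence.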
# [2] = biological target: T2, recombinant human CD63 extracellular loop 2 expressed with a C-terminal human Fc tag (human); test: SPR Biacore, mAb captured, 25C
# T2 construct: also called hCD63 EC loop 2-hFc; human CD63 EC loop 2-Fc
# T2 sequence (chain, as listed by the source limits assumed): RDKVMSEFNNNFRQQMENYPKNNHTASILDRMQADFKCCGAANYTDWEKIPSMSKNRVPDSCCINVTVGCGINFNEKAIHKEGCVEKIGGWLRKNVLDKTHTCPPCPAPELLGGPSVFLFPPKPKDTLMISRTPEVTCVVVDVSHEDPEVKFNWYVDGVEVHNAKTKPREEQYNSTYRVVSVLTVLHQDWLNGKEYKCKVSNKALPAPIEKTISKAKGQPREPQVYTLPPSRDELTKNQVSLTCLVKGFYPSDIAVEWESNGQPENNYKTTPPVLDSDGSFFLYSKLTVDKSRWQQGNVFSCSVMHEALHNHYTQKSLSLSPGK
# Method in brief: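 Anti-CD63 mAbs captured on anti-mouse Fc or anti-human Fab surfaces; CD63 EC2 reagents flowed in HBS-ET, pH 7.4, at 25° C or 37° C. ka and kd from 1:1 binding model with mass transport limitation; KD and t½ calculated from kinetic rates.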
# [3] = biological target: T1, human CD63; test: flow cytometry, HEK293 cells
# Protocol: Relative cell surface binding of the anti-CD63 antibodies to human CD63 expressing cells was accessed via flow cytometry using CD63 positive HEK293 cells (ATCC, Cat #CRL-1573), which endogenously express human CD63, and CD63 negative HEK293/CD63 knock out cells. For the assay, cells were plated in PBS without calcium and magnesium (VWR, Cat #45000-446), containing 2% FBS (Saradigm Cat #1500-500) (Staining Buffer) in 96 well V-bottom plates (Axygen Scientific, Cat #P-96-450-V-C-S). Cells were then incubated with anti-CD63 antibodies or isotype control antibodies at concentrations ranging from 100 nM to 1.7 pM for 30 minutes on ice. Wells containing no antibody were used as controls. HEK293/CD63KO cells were stained with only the highest concentration (100 nM) of the antibodies. […] Cells were then washed and fixed using a 50% solution of Cytofix (BD Biosciences, Cat #554655) diluted in PBS. Samples were run on the Intellicyte Hypercyt flow cytometer and results were analyzed in ForeCyt software (Intellicyte) to calculate the mean fluorescent intensity (MFI). Measured values were analyzed using a four parameter logistic equation over a 12-point response curve using GraphPad Prism and the resulting EC₅₀ values are reported (Table 12). The signal to noise ratio (S/N) was determined by calculating the ratio of the anti-CD63 antibodies or the control antibodies MFI to the wells containing no antibodies (Table 12).
# [4] = biological target: T1, human CD63; test: cell-based or functional assay
# [5] = biological target: T1, human CD63; test: cell-based or functional assay; remark: listed apart in the source
# [6] = biological target: T1, human CD63; test: ECL, LNCAP cells
# Method in brief: as §1
Binder,EC50 [1] [nM],binding ratio at 3.7 nM vs NIH3T3 [1] [fold],100 nM Ag Bound (RU) [2] [RU],Kd [2] [nM],koff [2] [s⁻¹],kon [2] [M⁻¹ s⁻¹],t1/2 [2] [h],EC50 [3] [nM],S/N (MFI over no-antibody wells) [3],"% Internalization, T47D cells [4] [%]","Total Internalized RFU, T47D cells [4] [RFU]","T47D (nM) IC50, indirect cytotoxicity with Fab anti-mFc-MMAF [5] [nM]",EC50 [6] [nM],binding ratio at 3.7 nM vs NIH3T3 [6] [fold]
B1,1.4,272,134,0.15,4.66e-05,320000,4.13,0.5,26.7,60.9,1.79e+06,0.24,1.4,20
B2,0.95,52,117,0.753,0.00051,677000,0.383,1.9,21,73.2,1.24e+06,,1.7,7
B3,0.79,171,107,0.704,8.4e-05,119000,2.3,1.8,31.6,73.7,1.71e+06,,0.35,18
